The record followed here is patent US20170129962A1 (Hoffmann-La Roche, published 2017).

T1: human Ang-2-RBD-Fc (human, UniProt O15123 275-496, limits assumed)
T1 construct: domain: RBD; Analyte in solution; not shown: Fc part
T1 sequence (looked up): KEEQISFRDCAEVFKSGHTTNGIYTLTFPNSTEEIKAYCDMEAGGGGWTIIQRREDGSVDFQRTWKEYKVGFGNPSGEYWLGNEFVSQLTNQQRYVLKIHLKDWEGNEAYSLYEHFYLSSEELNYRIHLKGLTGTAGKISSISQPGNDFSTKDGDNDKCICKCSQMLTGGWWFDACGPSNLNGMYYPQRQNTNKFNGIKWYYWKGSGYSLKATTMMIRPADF

T2: human VEGFA-121 (VEGF-A-121-His) (human, UniProt P15692-9 27-147)
T2 construct: Captured on the chip through an anti-His antibody; not shown: His tag
T2 sequence (looked up): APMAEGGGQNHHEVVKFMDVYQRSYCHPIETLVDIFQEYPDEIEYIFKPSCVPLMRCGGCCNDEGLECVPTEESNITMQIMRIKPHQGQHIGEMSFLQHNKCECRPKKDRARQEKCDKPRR

B1: Ang2VEGF-0454 (bispecific antibody, human IgG1, kappa)
light 1: QPGLTQPPSVSVAPGQTARITCGGNNIGSKSVHWYQQKPGQAPVLVVYDDSDRPSGIPERFSGSNSGNTATLTISRVEAGDEADYYCQVWDSSSDHYVFGTGTKVTVLRTVAAPSVFIFPPSDEQLKSGTASVVCLLNNFYPREAKVQWKVDNALQSGNSQESVTEQDSKDSTYSLSSTLTLSKADYEKHKVYACEVTHQGLSSPVTKSFNRGEC
heavy 1: not shown
light 2: DIQMTQSPSSLSASVGDRVTITCSASQDISNYLNWYQQKPGKAPKVLIYFTSSLHSGVPSRFSGSGSGTDFTLTISSLQPEDFATYYCQQYSTVPWTFGQGTKVEIKSSASTKGPSVFPLAPSSKSTSGGTAALGCLVKDYFPEPVTVSWNSGALTSGVHTFPAVLQSSGLYSLSSVVTVPSSSLGTQTYICNVNHKPSNTKVDKKVEPKSC
heavy 2: not shown
notes: also called Ang2VEGF-0454-0002; Ang2VEGF-0454-0002 (control)
B2: Ang2VEGF-0465 (bispecific antibody, human IgG1, kappa)
light 1: B1 light 1 with Q37K, E124K, Q125K
heavy 1: not shown
light 2: B1 light 2 with Q38K
heavy 2: not shown
notes: CrossMAb CH1-CL, knob-into-hole with S354C/Y349C; also called Ang2VEGF-0465-0002
B3: Ang2VEGF-0475 (bispecific antibody, human IgG1, kappa)
light 1: B1 light 1 with Q125E
heavy 1: not shown
light 2: B1 light 2
heavy 2: not shown
notes: CrossMAb CH1-CL, knob-into-hole with S354C/Y349C
B4: Ang2VEGF-0459 (bispecific antibody, human IgG1, kappa)
light 1: B1 light 1
heavy 1: not shown
light 2: B1 light 2 with K139E
heavy 2: not shown
notes: CrossMAb CH1-CL, knob-into-hole with S354C/Y349C; also called Ang2VEGF-0459-0002
B5: Ang2VEGF-0476 (bispecific antibody, human IgG1, kappa)
light 1: B1 light 1 with Q125E
heavy 1: not shown
light 2: B1 light 2 with K205E
heavy 2: not shown
notes: as for B3
B6: Ang2VEGF-0477 (bispecific antibody, human IgG1, kappa)
light 1: B1 light 1 with Q125K
heavy 1: not shown
light 2: B1 light 2
heavy 2: not shown
notes: as for B3
B7: Ang2VEGF-0456 (bispecific antibody, human IgG1, kappa)
light 1: B1 light 1 with Q125K
heavy 1: not shown
light 2: B1 light 2
heavy 2: not shown
notes: CrossMAb CH1-CL, knob-into-hole with S354C/Y349C; also called Ang2VEGF-0456-0002
B8: Ang2VEGF-0460 (bispecific antibody, human IgG1, kappa)
light 1: B1 light 1
heavy 1: not shown
light 2: B1 light 2 with K205E
heavy 2: not shown
notes: CrossMAb CH1-CL, knob-into-hole with S354C/Y349C; also called Ang2VEGF-0460-0002
B9: Ang2VEGF-0461 (bispecific antibody, human IgG1, kappa)
light 1: B1 light 1 with E124K, Q125R
heavy 1: not shown
light 2: B1 light 2
heavy 2: not shown
notes: CrossMAb CH1-CL, knob-into-hole with S354C/Y349C; also called Ang2VEGF-0461-0002
B10: Ang2VEGF-0455 (bispecific antibody, human IgG1, kappa)
light 1: B1 light 1 with Q125K
heavy 1: not shown
light 2: B1 light 2
heavy 2: not shown
notes: CrossMAb CH1-CL, knob-into-hole with S354C/Y349C; also called Ang2VEGF-0455-0002
B11: Ang2VEGF-0464 (bispecific antibody, human IgG1, kappa)
light 1: B1 light 1 with Q37E, E124K, Q125K
heavy 1: not shown
light 2: B1 light 2 with Q38K
heavy 2: not shown
notes: CrossMAb CH1-CL, knob-into-hole with S354C/Y349C; also called Ang2VEGF-0464-0002
B12: Ang2VEGF-0466 (bispecific antibody, human IgG1, kappa)
light 1: B1 light 1 with Q37K, E124K, Q125K
heavy 1: not shown
light 2: B1 light 2 with Q38K
heavy 2: not shown
notes: CrossMAb CH1-CL, knob-into-hole with S354C/Y349C; also called Ang2VEGF-0466-0002
B13: Ang2VEGF-0474 (bispecific antibody, human IgG1, kappa)
light 1: B1 light 1 with Q125K
heavy 1: not shown
light 2: B1 light 2
heavy 2: not shown
notes: as for B3
B14: Ang2VEGF-0462 (bispecific antibody, human IgG1, kappa)
light 1: B1 light 1 with E124K, Q125R
heavy 1: not shown
light 2: B1 light 2
heavy 2: not shown
notes: CrossMAb CH1-CL, knob-into-hole with S354C/Y349C; also called Ang2VEGF-0462-0002
B15: Ang2VEGF-0463 (bispecific antibody, human IgG1, kappa)
light 1: B1 light 1 with E124K, Q125R
heavy 1: not shown
light 2: B1 light 2
heavy 2: not shown
notes: CrossMAb CH1-CL, knob-into-hole with S354C/Y349C; also called Ang2VEGF-0463-0002

Where a chain is given by its changes, count along the chain named. In names and notes the source's numbering stands.

The first assay concerns the target T1, human Ang-2-RBD-Fc. As to the kind of experiment: SPR (Biacore T200), bispecific antibody captured by anti-human F(ab')2, Ang2-RBD-Fc as analyte, 1:1 Langmuir, apparent KD. How it is done:
(§1) Binding of indicated antibodies to human Ang-2-RBD-Fc was investigated by surface plasmon resonance using a BIACORE® T200 instrument (GE Healthcare). Around 8000 (RU) of goat anti human F(ab′)₂ (10 μg/ml anti human F(ab)′₂; Order Code: 28958325; GE Healthcare Bio-Sciences AB, Sweden) were coupled on a Series S CMS chip (GE Healthcare BR-1005-30) at pH 5.0 by using an amine coupling kit supplied by the GE Healthcare. HBS-N (10 mM HEPES, 150 mM NaCl pH 7.4, GE Healthcare) was used as running buffer during the immobilization procedure. For the following kinetic characterization, sample and running buffer was PBS-T (10 mM phosphate buffered saline including 0.05% Tween20) at pH 7.4. The flow cell was set to 25° C.—and the sample block set to 12° C.—and primed with running buffer twice prior to kinetic characterization.
(§2) The bispecific antibody was captured by injecting a 5 nM solution for 25 sec at a flow of 5 μl/min. The association was measured by injection of human Ang2-RBD-Fc in various concentrations in solution for 120 sec at a flow of 30 μl/min starting with 100 nM in 1:3 serial dilutions. The dissociation phase was monitored for up to 180 sec and triggered by switching from the sample solution to running buffer. The surface was regenerated by 60 sec washing with a Glycine pH 2.1 solution at a flow rate of 30 μl/min. Bulk refractive index differences were corrected by subtracting the response obtained from a goat anti human F(ab′)₂ surface. Blank injections are also subtracted (=double referencing). For calculation of apparent KD the Langmuir 1:1 model was used.
With B1, the Kd was found to be 2 nM.

With B2, the Kd amounted to 3 nM.

Take B3: the Kd amounted to 4 nM.

Turning to B4, the Kd turned out to be 2 nM.

In the case of B5, the Kd turned out to be 9 nM.

As for B6, the Kd is 4 nM.

Consider B7, for which the Kd amounted to 2 nM.

On to B8, for which the Kd turned out to be 2 nM.

For B9, the Kd is 2 nM.

As to B10, the Kd is 2 nM.

For the molecule B11, the Kd came out at 2 nM.

As for B12, the Kd is 3 nM.

In the case of B13, the Kd came to 5 nM.

Regarding B14, the Kd turned out to be 2 nM.

As for B15, the Kd came to 3 nM.

For the next assay, the target named is T2, human VEGFA-121 (VEGF-A-121-His). As to the kind of experiment: SPR (Biacore T200), VEGF-A-121-His captured by anti-His antibody, bispecific antibody as analyte, 1:1 Langmuir. How it is done:
Around 10000 (RU) of anti His antibody (1 μg/ml anti His antibody; Order Code: 28995056; GE Healthcare Bio-Sciences AB, Sweden) were coupled on a Series S CM5 chip (GE Healthcare BR-1005-30) at pH 5.0 by using an amine coupling kit supplied by the GE Healthcare. HBS-N (10 mM HEPES, 150 mM NaCl pH 7.4, GE Healthcare) was used as running buffer during the immobilization procedure. For the following kinetic characterization, sample and running buffer was PBS-T (10 mM phosphate buffered saline including 0.05% Tween20) at pH 7.4. The flow cell was set to 25° C.—and the sample block set to 12° C.—and primed with running buffer twice prior to kinetic characterization.
(§3) Binding of the multispecific antibodies to their respective target antigens, i.e. ANG2 and VEGF, was assessed by Biacore® as described in the general methods section.
Turning to B1, the Kd stood at 4 nM, the koff amounted to 8.65e-05 s⁻¹ and the kon was determined as 20400 M⁻¹ s⁻¹.

The molecule B2 had a Kd of 5 nM, a koff of 7.96e-05 s⁻¹ and a kon of 16000 M⁻¹ s⁻¹.

Molecule B3 registered a Kd of 7 nM, a koff of 7.26e-05 s⁻¹ and a kon of 10500 M⁻¹ s⁻¹.

B4 came in with a Kd of 4 nM, a koff of 7.19e-05 s⁻¹ and a kon of 17000 M⁻¹ s⁻¹.

On to B5, for which the Kd was 4 nM, the koff was 6.94e-05 s⁻¹ and the kon stood at 18500 M⁻¹ s⁻¹.

The molecule B6 displayed a Kd of 3 nM, a koff of 6.1e-05 s⁻¹ and a kon of 19500 M⁻¹ s⁻¹.

With B7, the Kd stood at 4 nM, the koff amounted to 8.4e-05 s⁻¹ and the kon stood at 21000 M⁻¹ s⁻¹.

On to B8, for which the Kd came out at 6 nM, the koff was 8.18e-05 s⁻¹ and the kon was 14200 M⁻¹ s⁻¹.

The molecule B9 displayed a Kd of 4 nM, a koff of 7.67e-05 s⁻¹ and a kon of 19200 M⁻¹ s⁻¹.

B10 returned a Kd of 7 nM, a koff of 9.01e-05 s⁻¹ and a kon of 12600 M⁻¹ s⁻¹.

B11 gave a Kd of 5 nM, a koff of 7.54e-05 s⁻¹ and an on-rate (kon) of 16600 M⁻¹ s⁻¹.

In the case of B12, the Kd was 4 nM, the koff amounted to 8.01e-05 s⁻¹ and the kon came to 18600 M⁻¹ s⁻¹.

Consider B13, for which the Kd came out at 3 nM, the koff came out at 5.41e-05 s⁻¹ and the kon stood at 21300 M⁻¹ s⁻¹.

Molecule B14 had a Kd of 4 nM, a koff of 7.52e-05 s⁻¹ and a kon of 21200 M⁻¹ s⁻¹.

Molecule B15 gave a Kd of 4 nM, a koff of 7.44e-05 s⁻¹ and a kon of 17600 M⁻¹ s⁻¹.

The next assay deals with T1, human Ang-2-RBD-Fc. As to the kind of experiment: SPR (Biacore T200), bispecific antibody captured by anti-human F(ab')2, Ang2-RBD-Fc as analyte, 1:1 Langmuir. How it is done: as §1, §2, §3
The molecule B1 had a koff of 0.0182 s⁻¹ and a kon of 1.08e+07 M⁻¹ s⁻¹.

Regarding B2, the koff stood at 0.0325 s⁻¹ and the kon was determined as 1.17e+07 M⁻¹ s⁻¹.

B3 showed a koff of 0.00505 s⁻¹ and a kon of 1.38e+06 M⁻¹ s⁻¹.

The molecule B4 displayed a koff of 0.0199 s⁻¹ and a kon of 8.8e+06 M⁻¹ s⁻¹.

B5: the koff turned out to be 0.0114 s⁻¹ and the kon turned out to be 1.32e+06 M⁻¹ s⁻¹.

On to B6, for which the koff turned out to be 0.00823 s⁻¹ and the kon came to 2.19e+06 M⁻¹ s⁻¹.

The molecule B7 displayed a koff of 0.0252 s⁻¹ and a kon of 1.16e+07 M⁻¹ s⁻¹.

In the case of B8, the koff stood at 0.0163 s⁻¹ and the kon turned out to be 8.76e+06 M⁻¹ s⁻¹.

B9 yielded a koff of 0.0163 s⁻¹ and a kon of 1.07e+07 M⁻¹ s⁻¹.

Regarding B10, the koff worked out at 0.0227 s⁻¹ and the kon came out at 1.06e+07 M⁻¹ s⁻¹.

Consider B11, for which the koff stood at 0.0172 s⁻¹ and the kon stood at 8.81e+06 M⁻¹ s⁻¹.

Regarding B12, the koff was determined as 0.031 s⁻¹ and the kon was 1.06e+07 M⁻¹ s⁻¹.

Turning to B13, the koff stood at 0.0097 s⁻¹ and the kon is 2.04e+06 M⁻¹ s⁻¹.

Turning to B14, the koff is 0.0252 s⁻¹ and the kon turned out to be 1.21e+07 M⁻¹ s⁻¹.

On to B15, for which the koff worked out at 0.0281 s⁻¹ and the kon is 9.54e+06 M⁻¹ s⁻¹.
